Target: T1, sodium-dependent phosphate transport protein 2b (NaPi2b, SLC34A2), human, endogenous (human, UniProt O95436 1-690)
T1 construct: whole, on cells; Naturally expressed, N-glycosylated membrane protein of human cancer cell lines (OVCAR-3, SK-RC-18 and others) and tissues; used on intact cells (MHA, flow cytometry), in cell or tissue lysates (Western blot, immunoprecipitation) and in tissue sections; also called MX35 antigen; NaPi2b/MX35
T1 sequence (looked up): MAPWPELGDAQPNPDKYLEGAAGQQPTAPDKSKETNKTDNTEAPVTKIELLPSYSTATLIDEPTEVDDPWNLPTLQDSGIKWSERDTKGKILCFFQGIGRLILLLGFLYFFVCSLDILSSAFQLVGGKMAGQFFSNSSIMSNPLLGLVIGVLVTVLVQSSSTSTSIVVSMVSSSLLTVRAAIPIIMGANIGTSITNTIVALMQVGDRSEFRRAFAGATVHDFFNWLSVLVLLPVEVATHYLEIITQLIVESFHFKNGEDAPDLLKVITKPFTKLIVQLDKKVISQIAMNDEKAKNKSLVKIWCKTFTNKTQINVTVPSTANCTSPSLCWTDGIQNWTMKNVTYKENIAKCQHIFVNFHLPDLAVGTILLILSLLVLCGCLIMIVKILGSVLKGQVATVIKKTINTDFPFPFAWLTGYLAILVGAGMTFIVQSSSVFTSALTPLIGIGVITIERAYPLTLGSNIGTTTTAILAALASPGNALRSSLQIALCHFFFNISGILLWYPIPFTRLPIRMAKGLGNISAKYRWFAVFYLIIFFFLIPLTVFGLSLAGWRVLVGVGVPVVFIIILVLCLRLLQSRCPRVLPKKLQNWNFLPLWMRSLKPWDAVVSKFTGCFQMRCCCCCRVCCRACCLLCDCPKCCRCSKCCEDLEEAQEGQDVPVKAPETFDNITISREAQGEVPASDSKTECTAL
Assay: flow cytometry on SK-RC-18 cells, 20 ug/ml antibody
Protocol: The binding efficacy of humanized MX35 antibody, synthesized and purified as described above, was compared with the murine version of the MX35 antibody, using fluorescein isothiocyanate—FITC—marker to assess the specific binding to different cells lines in flow cytometry. The cell lines listed in TABLE 4 were trypsinized, adjusted to a concentration of 2.5×10⁵ cells and distributed in 1.5 mL test tubes. After centrifugation the pellet was resuspended in 100 uL of primary antibody (either murine MX35, humanized MX35, hu3S193 or Zenapax®) diluted in the same culture medium used to cultivate the cells in the concentration of 20 μg/ml. In the case of controls “cells only” and FITC-conjugates, the cells were resuspended in 100 μL of medium culture. The mixtures were incubated for 1 h at 4° C. and then washed twice with 200 μL of phosphate buffered saline. The cells were resuspended in 100 μL of secondary antibody-FITC conjugated, either murine or human depending on the MX35 antibody version used. The control “cells only” tube received medium culture only. […] Staining of the cells with the fluorescent probes was measured in a fluid stream in the flow cytometry Guava® ExpressPro (Guava EasyCyte Mini System). For each individual experiment 10,000 events were acquired and counted.

B1: humanized MX35 (huMX35) monoclonal antibody (antibody, V domains shown)
VH: QVQLVQSGAEVVKPGASVKMSCKASGYTFTGYNIHWVKQAPGQGLEWIGAIYPGNGDTSYKQKFRGRATLTADTSTSTVYMELSSLRSEDSAVYYCARGETARATFAYWGQGTLVTVSS
VL: DIQMTQSPSSLSASVGDRVTITCSASQDIGNFLNWYQQKPGKTVKVLIYYTSSLYSGVPSRFSGSGSGTDYTLTISSLQPEDFATYYCQQYSKLPLTFGQGTKLELKR
notes: Produced in Per.C6 cells, protein A purified; also called Human MX35; humanized MX35 antibody
- binding result: binds

Reference: patent US20140193417A1 (LUDWIG INSTITUTE FOR CANCER RESEARCH, published 2014)
